Where a chain is given by its changes, count along the chain named. Numbers in names are those of the source.
B1: pre-pro-BDNF-T7-His6 (ligand)
chain: APMKEANIRGQGGLAYPGVRTHGTLESVNGPKAGSRGLTSLADTFEHVIEELLDEDQKVRPNEENNKDADLYTSRVMLSSQVPLEPPLLFLLEEYKNYLDAANMSMRVRRHSDPARRGELSVCDSISEWVTAADKKTAVDMSGGTVTVLEKVPVSKGQLKQYFYETKCNPMGYTKEGCRGIDKRHWNSQCRTTQSYVRALTMDSKKRIGWRFIRIDTSCVCTLTIKRGRGSGMASMTGGQQMGHHHHHH
B2: pre-pro-BDNF(-RGR)-T7-His6 (ligand)
chain: HSDPARRGELSVCDSISEWVTAADKKTAVDMSGGTVTVLEKVPVSKGQLKQYFYETKCNPMGYTKEGCRGIDKRHWNSQCRTTQSYVRALTMDSKKRIGWRFIRIDTSCVCTLTIKGSGMASMTGGQQMGHHHHHH
B3: pre-pro-BDNF(-RGD)-myc-His6 (ligand)
chain: APMKEANIRGQGGLAYPGVRTHGTLESVNGPKAGSRGLTSLADTFEHVIEELLDEDQKVRPNEENNKDADLYTSRVMLSSQVPLEPPLLFLLEEYKNYLDAANMSMRVRRHSDPARRGELSVCDSISEWVTAADKKTAVDMSGGTVTVLEKVPVSKGQLKQYFYETKCNPMGYTKEGCRGIDKRHWNSQCRTTQSYVRALTMDSKKRIGWRFIRIDTSCVCTLTIKGSGEQKLISEEDLGSGHHHHHH
B4: pre-pro-BDNF, RGR deleted, GSG, C-terminal His6, R54A, IgA protease cleavage site (row 2 of Table 9) (ligand)
chain: APMKEANIRGQGGLAYPGVRTHGTLESVNGPKAGSAGLTSLADTFEHVIEELLDEDQKVRPNEENNKDADLYTSRVMLSSQVPLEPPLLFLLEEYKNYLDAANMSMGSVVAPPAPHSDPARRGELSVCDSISEWVTAADKKTAVDMSGGTVTVLEKVPVSKGQLKQYFYETKCNPMGYTKEGCRGIDKRHWNSQCRTTQSYVRALTMDSKKRIGWRFIRIDTSCVCTLTIKGSGHHHHHH
B5: pre-pro-BDNF(-RGR)-opsin(S)-T7-His6 (ligand)
chain: APMKEANIRGQGGLAYPGVRTHGTLESVNGPKAGSRGLTSLADTFEHVIEELLDEDQKVRPNEENNKDADLYTSRVMLSSQVPLEPPLLFLLEEYKNYLDAANMSMRVRRHSDPARRGELSVCDSISEWVTAADKKTAVDMSGGTVTVLEKVPVSKGQLKQYFYETKCNPMGYTKEGCRGIDKRHWNSQCRTTQSYVRALTMDSKKRIGWRFIRIDTSCVCTLTIKGSGNGTEGPNFYVPFSNATGSGMASMTGGQQMGHHHHHH
B6: pre-pro-BDNF(-RGR; G62N, Y63G, Q79T)-T7-His6 (ligand)
chain: APMKEANIRGQGGLAYPGVRTHGTLESVNGPKAGSRGLTSLADTFEHVIEELLDEDQKVRPNEENNKDADLYTSRVMLSSQVPLEPPLLFLLEEYKNYLDAANMSMRVRRHSDPARRGELSVCDSISEWVTAADKKTAVDMSGGTVTVLEKVPVSKGQLKQYFYETKCNPMNGTKEGCRGIDKRHWNSTCRTTQSYVRALTMDSKKRIGWRFIRIDTSCVCTLTIKGSGMASMTGGQQMGHHHHHH
B7: pre-pro-BDNF(-RGR; T35N, Q79T)-T7-His6 (ligand)
chain: B6 chain with T145N, N172G, G173Y
B8: pre-pro-BDNF(-RGR; T35N; G62N; Y63G)-T7-His6 (ligand)
chain: B6 chain with T145N, T189Q
B9: pre-pro-BDNF(-RGR; K25N; G62N; Y63G)-T7-His6 (ligand)
chain: B6 chain with K135N, T189Q
B10: pre-pro-BDNF(-RGR; Q79T, R81N)-T7-His6 (ligand)
chain: B6 chain with N172G, G173Y, R191N
B11: pre-pro-BDNF(-RGR; K25N, Q79T)-T7-His6 (ligand)
chain: B6 chain with K135N, N172G, G173Y
B12: pre-pro-BDNF(-RGR; R81N)-T7-His6 (ligand)
chain: B6 chain with N172G, G173Y, T189Q, R191N
modifications: N-glycan at the introduced site (degree of glycosylation ++)
B13: pre-pro-BDNF(-RGR; Q79S)-T7-His6 (ligand)
chain: B6 chain with N172G, G173Y, T189S
B14: pre-pro-BDNF(-RGR; T35N, G62N, Y63G, Q79T)-T7-His6 (ligand)
chain: B6 chain with T145N
B15: pre-pro-BDNF(-RGR; G62N, Y63G, R81N)-T7-His6 (ligand)
chain: B6 chain with T189Q, R191N
B16: pre-pro-BDNF(-RGR)-opsin(S)-His6 (ligand)
chain: APMKEANIRGQGGLAYPGVRTHGTLESVNGPKAGSRGLTSLADTFEHVIEELLDEDQKVRPNEENNKDADLYTSRVMLSSQVPLEPPLLFLLEEYKNYLDAANMSMRVRRHSDPARRGELSVCDSISEWVTAADKKTAVDMSGGTVTVLEKVPVSKGQLKQYFYETKCNPMGYTKEGCRGIDKRHWNSQCRTTQSYVRALTMDSKKRIGWRFIRIDTSCVCTLTIKGSGNGTEGPNFYVPFSNATGSGHHHHHH
B17: pre-pro(His6-R54A)-BDNF(-RGR) (ligand)
chain: MTILFLTMVISYFGCMKAAPMKEANIHHHHHHAPMKEANIRGQGGLAYPGVRTHGTLESVNGPKAGSAGLTSLADTFEHVIEELLDEDQKVRPNEENNKDADLYTSRVMLSSQVPLEPPLLFLLEEYKNYLDAANMSMRVRRHSDPARRGELSVCDSISEWVTAADKKTAVDMSGGTVTVLEKVPVSKGQLKQYFYETKCNPMGYTKEGCRGIDKRHWNSQCRTTQSYVRALTMDSKKRIGWRFIRIDTSCVCTLTIK
B18: pre-pro-BDNF(-RGR)-opsin(L)-His6 (ligand)
chain: APMKEANIRGQGGLAYPGVRTHGTLESVNGPKAGSRGLTSLADTFEHVIEELLDEDQKVRPNEENNKDADLYTSRVMLSSQVPLEPPLLFLLEEYKNYLDAANMSMRVRRHSDPARRGELSVCDSISEWVTAADKKTAVDMSGGTVTVLEKVPVSKGQLKQYFYETKCNPMGYTKEGCRGIDKRHWNSQCRTTQSYVRALTMDSKKRIGWRFIRIDTSCVCTLTIKGSGNGTEGPNFYVPFSNATGVVRHHHHHH
B19: pre-pro(IgA)-BDNF(-RGR)-His6 (ligand)
chain: MTILFLTMVISYFGCMKAAPMKEANIRGQGGLAYPGVRTHGTLESVNGPKAGSRGLTSLADTFEHVIEELLDEDQKVRPNEENNKDADLYTSRVMLSSQVPLEPPLLFLLEEYKNYLDAANMSMGSVVAPPAPHSDPARRGELSVCDSISEWVTAADKKTAVDMSGGTVTVLEKVPVSKGQLKQYFYETKCNPMGYTKEGCRGIDKRHWNSQCRTTQSYVRALTMDSKKRIGWRFIRIDTSCVCTLTIKGSGHHHHHH
B20: pre-pro(R54A)-BDNF(-RGR)-His6 (ligand)
chain: HSDPARRGELSVCDSISEWVTAADKKTAVDMSGGTVTVLEKVPVSKGQLKQYFYETKCNPMGYTKEGCRGIDKRHWNSQCRTTQSYVRALTMDSKKRIGWRFIRIDTSCVCTLTIKGSGHHHHHH
B21: pre-pro(His6-R54A-IgA)-BDNF(-RGR) (ligand)
chain: MTILFLTMVISYFGCMKAAPMKEANIHHHHHHAPMKEANIRGQGGLAYPGVRTHGTLESVNGPKAGSAGLTSLADTFEHVIEELLDEDQKVRPNEENNKDADLYTSRVMLSSQVPLEPPLLFLLEEYKNYLDAANMSMGSVVAPPAPHSDPARRGELSVCDSISEWVTAADKKTAVDMSGGTVTVLEKVPVSKGQLKQYFYETKCNPMGYTKEGCRGIDKRHWNSQCRTTQSYVRALTMDSKKRIGWRFIRIDTSCVCTLTIK

Target: human TrkB on CHO cells (CHO-K1-hTrkB/pSRE-Luc) (human) (UniProt Q16620)
Sequence (Q16620 32-822): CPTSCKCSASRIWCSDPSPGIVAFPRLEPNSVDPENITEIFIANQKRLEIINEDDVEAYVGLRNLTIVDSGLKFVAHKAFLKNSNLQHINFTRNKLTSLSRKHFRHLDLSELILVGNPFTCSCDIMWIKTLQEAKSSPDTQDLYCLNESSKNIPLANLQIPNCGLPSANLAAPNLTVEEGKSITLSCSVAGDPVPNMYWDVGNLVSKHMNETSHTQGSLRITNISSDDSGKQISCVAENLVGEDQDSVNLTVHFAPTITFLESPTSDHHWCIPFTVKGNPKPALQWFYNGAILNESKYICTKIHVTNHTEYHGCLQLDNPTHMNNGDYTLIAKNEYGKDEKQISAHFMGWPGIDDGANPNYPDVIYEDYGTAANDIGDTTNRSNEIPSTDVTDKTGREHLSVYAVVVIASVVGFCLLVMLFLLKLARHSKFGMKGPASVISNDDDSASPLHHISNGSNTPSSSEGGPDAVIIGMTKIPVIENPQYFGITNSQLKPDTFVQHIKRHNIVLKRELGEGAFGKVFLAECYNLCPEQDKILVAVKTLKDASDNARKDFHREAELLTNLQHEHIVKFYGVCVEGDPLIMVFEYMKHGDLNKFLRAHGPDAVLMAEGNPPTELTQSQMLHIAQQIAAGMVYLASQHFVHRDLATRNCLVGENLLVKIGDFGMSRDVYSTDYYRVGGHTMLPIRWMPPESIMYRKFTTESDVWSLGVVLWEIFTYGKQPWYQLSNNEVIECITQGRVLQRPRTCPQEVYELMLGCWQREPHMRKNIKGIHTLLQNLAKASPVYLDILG
Assay: cell-based or functional assay

Row | BDNF activity in TrkBluciferase assay, EC50 [nM] | Binder
1 | 3 | B1
2 | 3 | B2
3 | 0.36 | B3

Target: human TrkB on CHO cells (CHO-K1-hTrkB/pSRE-Luc) (human) (UniProt Q16620)
Assay: cell-based or functional assay
Remark: another data set of the same source

Row | BDNF activity in TrkBluciferase assay, EC50 [nM] | BDNF activity in TrkBluciferase assay, EC50 [% or nM] | relative BDNF activity in TrkB luciferase assay, EC50 [%] | Binder
4 | 9.6 | – | – | B4
5 | 0.3 | – | – | B5
6 | – | 0.13 nM | – | B6
7 | – | 0.064 nM | – | B7
8 | – | 0.039 nM | – | B8
9 | – | 276% | – | B9
10 | – | 0.05 nM | – | B10
11 | – | 0.21 nM | – | B11
12 | 0.8 | – | – | B12
13 | 6.9 | – | – | B13
14 | – | 0.069 nM | – | B14
15 | – | 203% | – | B15
16 | 0.3 | – | – | B16
17 | 1.2 | – | – | B17
18 | 0.3 | 555% | 10 | B18
19 | 9.6 | 282% | – | B19
20 | 1.2 | – | – | B20
21 | 3.4 | 100% | 100 | B2
22 | 9.6 | – | – | B21

— patent US20190271021A1
